Measured values from paper PMC8117158.

Tests used:
[1] = biological target: IscU^N–GFP (E. coli K-12) (UniProt P0ACD4); assay: split reporter (BiFC, NanoBiT); BiFC by reconstitution of GFP from N-GFP and C-GFP fusions co-expressed in E. coli BL21(DE3) Gold; fluorescence microscopy of cells on agarose slides, normalised to empty vectors
[2] = biological target: IscS^C–GFP (E. coli K-12) (UniProt P0A6B7); assay: as above
UniProt P0A6B7, sequence (P0A6B7 whole entry): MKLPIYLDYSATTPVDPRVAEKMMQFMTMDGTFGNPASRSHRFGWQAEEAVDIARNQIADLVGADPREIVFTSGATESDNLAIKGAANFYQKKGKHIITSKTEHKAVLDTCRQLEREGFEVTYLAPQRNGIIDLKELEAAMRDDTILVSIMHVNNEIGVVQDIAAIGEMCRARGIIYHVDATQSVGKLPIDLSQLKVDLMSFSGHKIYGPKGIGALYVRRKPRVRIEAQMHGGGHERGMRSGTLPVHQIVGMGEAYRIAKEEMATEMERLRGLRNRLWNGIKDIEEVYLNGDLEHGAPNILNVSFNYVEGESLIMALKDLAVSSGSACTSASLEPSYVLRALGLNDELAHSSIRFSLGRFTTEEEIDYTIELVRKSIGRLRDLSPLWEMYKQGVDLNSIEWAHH

UniProt P0ACD4, sequence (P0ACD4 whole entry, the tested form may be a part): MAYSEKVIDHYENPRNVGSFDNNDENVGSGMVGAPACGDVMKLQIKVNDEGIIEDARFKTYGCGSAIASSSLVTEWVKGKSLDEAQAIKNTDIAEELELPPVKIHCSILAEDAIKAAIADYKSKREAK

Row | fold fluorescence over the control [1] | fold fluorescence over the control [2] | Substance
1 | 3 fold | – | YtfE^C–GFP (from UniProt P69506 1-220) (natural protein)
2 | – | 6 fold | YtfE^N–GFP (from UniProt P69506 1-220) (natural protein)
